Measured values as given in patent US20240067706A1.

Substrate: S proteins of SARS-CoV-2 and mutant strains thereof on pseudoviruses
Assay: cell-based or functional assay

B1: fully human monoclonal antibody 76E1 (antibody, V domains shown)
VH: EVQLVESGGGVVQPGGSLRLSCEASGFSFKDYGMHWIRQTPGKGLEWISRISGDTRGTSYVDSVKGRFIVSRDNSRNSLFLQMNSLRSEDTALYYCAALVIVAAGDDFDLWGQGTVVTVSS
VL: QSALTQPLSVSGSPGQSVTISCTGSSSDIGSYNFVSWYRQYPGKAPKVMIYEVNKRPSGVPVRFSGSKSGNTASLTVSGLQHEDEADYYCCSYGGRNNLIFGGGTKLTVL
IC50 of pseudovirus neutralization (luciferase activity): 0.397 µg/mL
